From US20200079833A1 (AstraZeneca / MedImmune, published 2020) come the findings set out here.

Starred links: 1 amine or outer side, 2 acyl side, 3 side chain; linkers in the order of their positions; H or OH if unused. Non-standard residues stand in square brackets, D forms with d. Groups on a side chain read outwards from the residue. Primed or numbered codes have the meaning given here. No end group written: not given here. *: point of attachment. Dodecylbenzoate = dodecylbenzoyl lipid group; γGlu = O=C(O)[C@H](CCC(=O)[*:2])N[*:1]; Stearoyl = CCCCCCCCCCCCCCCCCC(=O)*; αMeF = C[C@](N)(Cc1ccccc1)C(=O)O; αMeK = C[C@](N)(CCCCN)C(=O)O; αMeS = C[C@](N)(CO)C(=O)O; PEG2′ = not defined here; Aib = CC(C)(N)C(=O)O

What all share (assay): cell-based or functional assay
For experiment [1], the target named is glucagon receptor (GCGR) (human, UniProt P47871 26-477).
In experiment [2] the target is GLP-1 receptor (GLP-1R) (human, UniProt P43220 24-463).
Experiment [3] has as its target T1, glucose-dependent insulinotropic peptide (gastric inhibitory polypeptide) receptor (GIPR) (human, UniProt P48546 22-466).
T1 sequence (looked up): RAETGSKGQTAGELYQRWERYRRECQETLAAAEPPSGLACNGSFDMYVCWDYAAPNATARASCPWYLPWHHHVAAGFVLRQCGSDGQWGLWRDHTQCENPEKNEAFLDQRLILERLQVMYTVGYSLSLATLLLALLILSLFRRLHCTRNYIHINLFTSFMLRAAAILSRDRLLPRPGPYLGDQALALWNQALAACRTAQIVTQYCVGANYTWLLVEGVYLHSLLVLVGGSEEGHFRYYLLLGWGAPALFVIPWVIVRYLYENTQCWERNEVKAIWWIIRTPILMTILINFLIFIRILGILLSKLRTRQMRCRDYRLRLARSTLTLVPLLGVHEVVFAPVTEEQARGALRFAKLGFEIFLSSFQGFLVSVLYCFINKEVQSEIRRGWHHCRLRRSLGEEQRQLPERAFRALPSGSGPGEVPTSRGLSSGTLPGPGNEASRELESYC

Chain of glucagon receptor (GCGR) (P47871 26-477): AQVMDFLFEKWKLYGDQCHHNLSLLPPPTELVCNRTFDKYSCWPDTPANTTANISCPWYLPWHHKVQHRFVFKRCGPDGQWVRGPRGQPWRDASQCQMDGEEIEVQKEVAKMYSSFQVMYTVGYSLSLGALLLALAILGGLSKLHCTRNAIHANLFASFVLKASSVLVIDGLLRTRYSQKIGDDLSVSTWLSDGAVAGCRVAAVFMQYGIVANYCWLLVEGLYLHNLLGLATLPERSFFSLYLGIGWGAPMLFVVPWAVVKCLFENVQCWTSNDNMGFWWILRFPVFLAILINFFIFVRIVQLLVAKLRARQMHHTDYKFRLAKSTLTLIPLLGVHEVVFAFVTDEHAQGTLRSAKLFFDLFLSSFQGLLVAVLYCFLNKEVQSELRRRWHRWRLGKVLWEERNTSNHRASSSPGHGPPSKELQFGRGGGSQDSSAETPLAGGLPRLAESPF

In the case of H[Aib]EGS[αMeF]TSDV[αMeS]S[αMeF]LEGEAA[αMeK]E[αMeF]IA[αMeF]VVK([PEG2′-PEG2′-PEG2′-Dodecylbenzoate])GG-NH2 [SEQ ID NO 181], in experiment [1], the “Primary assay EC50 (cAMP), Gluc-R, first run” value worked out at 25 nM and the “Primary assay EC50 (cAMP), Gluc-R, second run” value turned out to be 25 nM. In experiment [2], the “Primary assay EC50 (cAMP), GLP-1R n1” value is 2.1 pM; the “Primary assay EC50 (cAMP), GLP-1R n2” value was 0.83 pM; the “Primary assay EC50 (cAMP), Mean pM GLP-1R” value was 1.5 pM. Besides, in experiment [3], the “Primary assay EC50 (cAMP), GIP-R, first run” value was 25 nM and the “Primary assay EC50 (cAMP), GIP-R, second run” value was determined as 25 nM.

B1: SEQ ID NO 182 (peptide)
peptide: H[Aib]EGS[αMeF]TSDV[αMeS]S[αMeF]LEGEAA[αMeK]E[αMeF]IA[αMeF]VVK([γGlu-Stearoyl])GG-NH2
modifications: N-terminus assumed
SMILES: CCCCCCCCCCCCCCCCCC(=O)N[C@@H](CCC(=O)NCCCC[C@H](NC(=O)[C@@H](NC(=O)[C@@H](NC(=O)[C@](C)(Cc1ccccc1)NC(=O)[C@H](C)NC(=O)[C@@H](NC(=O)[C@](C)(Cc1ccccc1)NC(=O)[C@H](CCC(=O)O)NC(=O)[C@](C)(CCCCN)NC(=O)[C@H](C)NC(=O)[C@H](C)NC(=O)[C@H](CCC(=O)O)NC(=O)CNC(=O)[C@H](CCC(=O)O)NC(=O)[C@H](CC(C)C)NC(=O)[C@](C)(Cc1ccccc1)NC(=O)[C@H](CO)NC(=O)[C@](C)(CO)NC(=O)[C@@H](NC(=O)[C@H](CC(=O)O)NC(=O)[C@H](CO)NC(=O)[C@@H](NC(=O)[C@](C)(Cc1ccccc1)NC(=O)[C@H](CO)NC(=O)CNC(=O)[C@H](CCC(=O)O)NC(=O)C(C)(C)NC(=O)[C@@H](N)Cc1c[nH]cn1)[C@@H](C)O)C(C)C)[C@@H](C)CC)C(C)C)C(C)C)C(=O)NCC(=O)NCC(N)=O)C(=O)O
As for B1, in experiment [1], the “Primary assay EC50 (cAMP), Gluc-R, first run” value came to 28 nM and the “Primary assay EC50 (cAMP), Gluc-R, second run” value came to 28 nM. In experiment [2], the “Primary assay EC50 (cAMP), GLP-1R n1” value worked out at 130 pM; the “Primary assay EC50 (cAMP), GLP-1R n2” value was found to be 52 pM; the “Primary assay EC50 (cAMP), Mean pM GLP-1R” value came to 89.9 pM. In experiment [3], the “Primary assay EC50 (cAMP), GIP-R, first run” value stood at 28 nM and the “Primary assay EC50 (cAMP), GIP-R, second run” value came to 28 nM.
With H[Aib]EGS[αMeF]TSDV[αMeS]S[αMeF]LEGEAA[αMeK]E[αMeF]IA[αMeF]VVK([PEG2′-PEG2′-Dodecylbenzoate])GG-NH2 [SEQ ID NO 180], in experiment [1], the “Primary assay EC50 (cAMP), Gluc-R, first run” value came to 26 nM and the “Primary assay EC50 (cAMP), Gluc-R, second run” value worked out at 26 nM. In experiment [2], the “Primary assay EC50 (cAMP), GLP-1R n1” value is 3.2 pM; the “Primary assay EC50 (cAMP), GLP-1R n2” value turned out to be 1.1 pM; the “Primary assay EC50 (cAMP), Mean pM GLP-1R” value turned out to be 2.2 pM. In experiment [3], the “Primary assay EC50 (cAMP), GIP-R, first run” value worked out at 26 nM and the “Primary assay EC50 (cAMP), GIP-R, second run” value came to 26 nM.
